Experimental data published in US20240199758A1, “METHOD FOR ALLOWING IMMUNE CELLS INFILTRATION IN TUMORS” (Alethia Biotherapeutics Inc., priority 2021, published 2024).
Where “and” joins values, the source holds several entries; their conditions need not be identical. Identical values can stand only once. Entries after “also recorded” stand apart in the source; their conditions may differ.

Tests used:
[1] = test system: frozen Sprague-Dawley rat tissues; assay: Tissue cross-reactivity study, Sprague-Dawley rat tissues; format: binding; conditions: Sprague-Dawley rat tissue panel, 2 and 10 μg/mL
Method: (§1) In addition, a tissue cross-reactivity study was conducted to determine the potential cross-reactivity of AB-16B5 with frozen tissues from human, Rhesus monkey, and Sprague-Dawley rat tissues.

sCLU = target: T1, sCLU (Macaca mulatta, UniProt F6S885); assay: sCLU serum concentrations after single dose administration; format: in vivo; conditions: Rhesus monkeys
T1 construct: from tissue; host or cells: serum of Rhesus monkeys (in vivo)
Description: (§2) There was an approximate 70% increase in systemic exposure following repeated dosing from Day 1 to Day 26 which is consistent with the elimination half-life of AB-16B5 and the dosing intervals. […] The sCLU concentrations were generally back to their baseline levels after 3 to 5 days. The concurrent decrease in sCLU concentrations immediately following dosing with AB-16B5 is consistent with an antigen-sink phenomenon.

vimentin = assay: Phase I study: immunohistochemistry on paired tumor biopsies, vimentin; format: in vivo, human; conditions: Subject 007, advanced gastric cancer
Method: (§3) Immunohistochemistry studies were conducted on paired tumor biopsies to determine if the treatment with AB-16B5 was associated with a reacquisition of an epithelial phenotype.

[2] = test system: CA 15-3, CA-125, CA 19-9, CEA, LDH and PSA; assay: Phase I study: circulating tumor biomarkers; format: in vivo, human
Method: Several well-established circulating biomarkers were evaluated to monitor the response to therapy. They included CA 15-3, CA-125, CA 19-9, CEA, LDH and PSA.

E-cadherin = assay: Phase I study: immunohistochemistry on paired tumor biopsies, E-cadherin; format: in vivo, human
Method: as §3

[3] = Non-clinical toxicity, weekly administration in rats; format: in vivo, Sprague-Dawley rats
Description: This finding most likely reflects a slight antigenic stimulation by AB-16B5 in these 2 regional lymph nodes.

[4] = Phase I study: detection of AB-16B5 in tumor biopsies; format: in vivo, human; conditions: for Detection of AB-16B5 in Post-Treatment Biopsy: after Cycle 2 Day 15
Description: Tumor biopsies were collected during the standard dose escalation to investigate the presence of AB-16B5 within the tumor. A total of 4 pre-treatment and 5 post-treatment tumor biopsies were suitable for analysis. These post-treatment tumor biopsies were collected following dosing on Cycle 2 Day 15 (between Cycle 2 Day 15 and Cycle 2 Day 18). The biopsy sites were liver (n=2), lymph node (n=2), bladder, skin and vulva.

[5] = test system: advanced solid malignancy; assay: Phase I study AB-16B5-101: tumor response (RECIST) and best overall response; format: in vivo, human
[6] = test system: frozen tissues from Rhesus monkey; assay: Tissue cross-reactivity study, Rhesus monkey tissues; format: binding; conditions: Rhesus monkey tissue panel, 2 and 10 μg/mL
Method: as §1

[7] = Phase I study AB-16B5-101: safety and tolerability
Method: The dose escalation was performed using 2 dose escalation schemes; the accelerated dose escalation scheme and the standard dose escalation scheme. Only 1 subject was enrolled in each of the first 2 cohorts as per protocol (accelerated dose escalation scheme).
Subjects received AB-16B5 by a 60-minute IV infusion once weekly on Days 1, 8 and 15 of each cycle of treatment.

[8] = Non-clinical pharmacokinetics, single and repeat-dose studies in rats; format: in vivo, Sprague-Dawley rats
Description: as §2

[9] = Non-clinical pharmacokinetics, single and repeat-dose studies in monkeys; format: in vivo, Rhesus monkeys
Description: as §2

[10] = Non-clinical toxicity, weekly administration in monkeys
[11] = Subject 012, Breast, biopsy site Skin
[12] = Subject 013, Prostate, biopsy site Bladder
[13] = Subject 001, Pancreatic, 1.5 mg/kg, 2 total cycles
[14] = Subject 002, Endometrium, 3.0 mg/kg, 4 total cycles
[15] = Subject 003, Soft Tissue Sarcoma, 6.0 mg/kg, 2 total cycles
[16] = Subject 005, Prostate, 6.0 mg/kg, 2 total cycles
[17] = Subject 010, Colorectal, 12.0 mg/kg, 4 total cycles
[18] = Subject 012, Breast, 12.0 mg/kg, 2 total cycles
[19] = Subject 013, Prostate, 12.0 mg/kg, 2 total cycles
[20] = Subject 014, Vulvar Melanoma, 12.0 mg/kg, 2 total cycles

T1 sequence (F6S885 22-448): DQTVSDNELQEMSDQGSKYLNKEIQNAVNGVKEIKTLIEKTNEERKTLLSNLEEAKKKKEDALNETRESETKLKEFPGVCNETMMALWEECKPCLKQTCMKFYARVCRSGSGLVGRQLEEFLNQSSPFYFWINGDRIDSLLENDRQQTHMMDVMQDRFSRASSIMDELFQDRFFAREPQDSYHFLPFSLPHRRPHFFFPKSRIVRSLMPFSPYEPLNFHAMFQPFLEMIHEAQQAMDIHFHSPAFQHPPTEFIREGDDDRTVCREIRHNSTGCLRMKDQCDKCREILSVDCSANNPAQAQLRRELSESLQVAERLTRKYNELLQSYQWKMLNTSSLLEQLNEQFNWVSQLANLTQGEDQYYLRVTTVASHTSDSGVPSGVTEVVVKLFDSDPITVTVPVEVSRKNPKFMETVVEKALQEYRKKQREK

Question: Which results are given for “AB-16B5: humanized IgG2 monoclonal antibody targeting sCLU for the inhibition of cancer-associated EMT; light chain SEQ ID NO:11, heavy chain SEQ ID NO:12”?
Answer: AB-16B5 staining of tissue elements [1]: observed in a number of tissue elements; membrane staining [1]: no membrane staining was observed; sCLU serum concentrations following dosing (sCLU): decreased significantly; vimentin expression after treatment (vimentin): loss of vimentin expression; level of CEA ([2]; circulating): remained stable or decreased in few patients; tumor biomarker levels ([2]; circulating CA 15-3, CA-125, CA 19-9, CEA, LDH, PSA, correlated with disease progression): increased over time; E-cadherin Expression in Post-Treatment (E-cadherin; Subject 006, Breast, biopsy site Skin): Increase; E-cadherin Expression in Post-Treatment (E-cadherin; Subject 007, Gastric, biopsy site Gastric): Increase; E-cadherin Expression in Post-Treatment (E-cadherin; [11]): Decrease; E-cadherin Expression in Post-Treatment (E-cadherin; [12]): No change; patients with increased E-cadherin expression after treatment (E-cadherin; paired tumor biopsies): 2 pts; incidence of minimal lymphoid hypercellularity, mandibular lymph node ([3]; rat, in vivo): 1/20; incidence of minimal lymphoid hypercellularity, mesenteric lymph node ([3]; rat, in vivo): 2/20; reversibility of lymphoid hypercellularity ([3]; rat, in vivo): complete reversibility; treatment-related clinical signs, changes in body weight, food consumption, ophthalmology, clinical pathology, organ weights ([3]; rat, in vivo): did not result in any treatment-related clinical signs; treatment-related macroscopic changes ([3]; rat, in vivo): no treatment-related macroscopic changes; No Observable Adverse Effect Level (NOAEL) ([3]; rats, weekly administration): 100 mg/kg/dose; presence of AB-16B5 in post-treatment tumor biopsies ([4]; 5 post-treatment tumor biopsies): confirmed in all post-treatment tumor biopsies analyzed; also recorded: confirmed in all 5 pts; Detection of AB-16B5 in Post-Treatment Biopsy ([4]; Subject 009, Lung, biopsy site Liver): Positive; Detection of AB-16B5 in Post-Treatment Biopsy ([4]; Subject 010, Colorectal, biopsy site Liver): Positive; Detection of AB-16B5 in Post-Treatment Biopsy [4, 11]: Positive; Detection of AB-16B5 in Post-Treatment Biopsy [4, 12]: Positive; Detection of AB-16B5 in Post-Treatment Biopsy ([4]; Subject 015, Ovarian, biopsy site Lymph node): Positive; subjects with best overall response progressive disease (PD) ([5]; RECIST-evaluable population): 43%; Best Overall Response [5, 13]: PD (progressive disease (PD)); Tumor Response at Last Assessment: Non-Target Lesions [5, 13]: PD (New; Tumor Response at Last Assessment: Target Lesions [5, 13]: PD (progressive disease (PD)); Tumor Response at Last Assessment: Non-Target Lesions [5, 14]: Non-CR/; Tumor Response at Last Assessment: Target Lesions [5, 14]: PD (progressive disease (PD)); Best Overall Response [5, 15]: PD (progressive disease (PD)); Tumor Response at Last Assessment: Non-Target Lesions [5, 15]: PD (New; Tumor Response at Last Assessment: Non-Target Lesions ([5]; Subject 004, Thyroid, 6.0 mg/kg, 17 total cycles): Non-CR/; Best Overall Response [5, 16]: PD (progressive disease (PD)); Tumor Response at Last Assessment: Non-Target Lesions [5, 16]: Non-CR/; Tumor Response at Last Assessment: Target Lesions [5, 16]: PD (progressive disease (PD)); Tumor Response at Last Assessment: Non-Target Lesions ([5]; Subject 006, Breast, 9.0 mg/kg, 3 total cycles): Non-CR/; Tumor Response at Last Assessment: Non-Target Lesions ([5]; Subject 007, Gastric, 9.0 mg/kg, 8 total cycles): PD (New; Tumor Response at Last Assessment: Non-Target Lesions ([5]; Subject 008, Thyroid, 9.0 mg/kg, 4 total cycles): PD (New; Tumor Response at Last Assessment: Non-Target Lesions ([5]; Subject 009, Lung, 12.0 mg/kg, 6 total cycles): PD (New; Tumor Response at Last Assessment: Non-Target Lesions [5, 17]: PD (New; Tumor Response at Last Assessment: Target Lesions [5, 17]: PD (progressive disease (PD)); Best Overall Response [5, 18]: PD (progressive disease (PD)); Tumor Response at Last Assessment: Non-Target Lesions [5, 18]: PD (progressive disease (PD)); Best Overall Response [5, 19]: PD (progressive disease (PD)); Tumor Response at Last Assessment: Non-Target Lesions [5, 19]: PD (New; Best Overall Response [5, 20]: PD (progressive disease (PD)); Tumor Response at Last Assessment: Non-Target Lesions [5, 20]: PD (New; Tumor Response at Last Assessment: Non-Target Lesions ([5]; Subject 015, Ovarian Cancer, 12.0 mg/kg, 4 total cycles): PD (New; time on treatment with stable disease (SD) with clinical benefit ([5]; patient with advanced gastric cancer): 24 weeks; duration of SD ([5]; patient with follicular thyroid cancer): ~1 year; AB-16B5 staining of tissue elements [6]: observed in a number of tissue elements; membrane staining [6]: no membrane staining was observed; dose-related trend in the incidence of AEs ([7]; 1.5 to 12.0 mg/kg): no dose-related trend; dose-limiting toxicity ([7]; 1.5 to 12.0 mg/kg once weekly, 15 subjects): No dose-limiting toxicity was observed; also recorded: No dose-limiting toxicities were identified; subjects reporting SAEs ([7]; 5 of 15 subjects): 33%; AEs of Grade 3 to 5 ([7]; 15 subjects): 12; number of SAEs ([7]; 15 subjects): 6 and 5; subjects reporting AEs of Grade 3 to 5 ([7]; 15 subjects): 8 subjects; total AEs reported ([7]; 15 subjects, all causalities): 167; safety and tolerability ([7]; 60-minute IV weekly infusion, doses up to 12 mg/kg): safe and well tolerated; AEs of Grade 3 to 5 related to AB-16B5 ([7]; Grade 3 infusion related reaction and Grade 3 rash): 2; deaths ([7]; Subjects 004 and 014, associated with progression of the disease): Two deaths were reported; grade of drug-related AEs ([7]; in vivo): mainly of Grade 1 or 2; most frequently reported AEs (all causalities) ([7]; in vivo): nausea, abdominal pain, back pain, vomiting, chills, dyspnea, constipation and pruritus; most frequently reported AEs related to AB-16B5 ([7]; in vivo): nausea, pruritus, headache and rash; relation of SAEs to AB-16B5 ([7]; in vivo): All SAEs were considered unrelated to AB-16B5; also recorded: none of which were judged related to the study treatment; AEs related (possibly, probably or definitely) to AB-16B5 ([7]; out of 167 AEs): 68; subjects who discontinued the study due to an adverse event ([7]; two subjects (004 and 011)): 13%; systemic exposure over 24 hours versus dose [8]: increased with increasing dose levels in a dose proportional manner; increase in systemic exposure following repeated dosing ([8]; Day 1 to Day 26): ~70%; peak serum AB-16B5 concentrations ([8]; infusion, single and repeat-dose): reached shortly after the start of infusion; systemic exposure versus dose ([9]; monkeys): increased with increasing dose levels in a generally greater than dose proportional manner; peak serum AB-16B5 concentrations ([9]; monkeys, infusion, single and repeat-dose): reached shortly after the start of infusion; systemic exposure once weekly versus twice weekly ([9]; monkeys, repeated dosing): no notable differences in systemic exposure; accumulation for AUC0-72 ([9]; repeated dosing): a lower extent of accumulation was observed; drug accumulation in terms of Cmax ([9]; repeated dosing): no evidence of drug accumulation; mean albumin, globulin, A/G and phosphorus levels ([10]; monkeys, 20, 60 and/or 100 mg/kg): Slight changes; NOAEL ([10]; monkeys, weekly administration): 100 mg/kg/dose
